Measurements from paper PMC5350519.

What was measured:
[1] = target: CENP-A^TAP (carboxy-terminally TAP-tagged CENP-A) (human) (UniProt P49450); test: co-IP
[2] = target: CENP-A^LAP (CENP-A tagged at an endogenous allele with a LAP tag) (human (endogenous in HeLa)) (UniProt P49450); test: co-IP

With “histone H3 (from UniProt P68431 1-136) (natural protein)” the fold depletion of histone H3 in the purified complexes against the input [1] was 6250 fold.

“untagged endogenous CENP-A (from UniProt P49450 1-140) (natural protein)” gave a stoichiometry N (CENP-A molecules in a complex) [2] of 2, a percent of the total CENP-A in the affinity-purified complexes [1] of 9 to 13% and a stoichiometry N (CENP-A molecules in a complex) [1] greater than 2.
